Measurements reported in PMC8748767 (Nature Communications, 2022).

B1: Tyrosine hydroxylase deletion mutant with the first 35 residues deleted (THNΔ35) (domain or fragment)
chain: not shown
notes: human tyrosine hydroxylase isoform TH1 with the first 35 residues deleted; numbers count on: isoform TH1; also called THΔN35; THΔ35; source: recombinant, construct derived from pETMBP1a/TH (Genscript), expressed and purified essentially as TH; not shown: His, N-terminal, cleaved; MBP, N-terminal, cleaved
B2: Tyrosine hydroxylase deletion mutant lacking the N-terminal 43 residues (THNΔ43) (domain or fragment)
chain: not shown
notes: human tyrosine hydroxylase isoform TH1 lacking the N-terminal 43 residues; numbers count on: isoform TH1; source: recombinant, construct derived from pETMBP1a/TH (Genscript), expressed and purified essentially as TH; not shown: His, N-terminal, cleaved; MBP, N-terminal, cleaved
B3: Tyrosine hydroxylase deletion mutant with the entire N-terminal removed (THNΔ70) (domain or fragment)
chain: not shown
notes: human tyrosine hydroxylase isoform TH1 with the entire N-terminal tail (residues 1-70) removed; numbers count on: isoform TH1; also called THΔN70; source: recombinant, construct derived from pETMBP1a/TH (Genscript), expressed and purified essentially as TH; not shown: His, N-terminal, cleaved; MBP, N-terminal, cleaved

Target: the molecule itself
Test: SEC; preparative size-exclusion chromatography, HiLoad Superdex 200 prep grade (1.6 cm × 60 cm), 20 mM Na-Hepes pH 7, 200 mM NaCl

Stoichiometry N, 4:
B1
B2
B3
